To fix the notation:
B1: Bol1-Strep [S. cerevisiae] / Isa2 [S. cerevisiae] (parent complex)
chain 1: MFKRAMSTDGPVARTILKRLECGFPDYKNFAFGLYNDSHKHKGHAGVQGNVSAETHFRIEMVSKKFEGLKLPQRHRMVYSLLQDEMAQANGIHALQLSLKTPQEYESKAK
chain 2: MQAKLLFTRLNFRRPSTTLRQFPLTCFLFHSKAFYSDLVTKEPLITPKRIINKTPGLNLSISERASNRLAEIYRNSKENLRISVESGGCHGFQYNLTLEPATKPDIKNDVKDKEFSDDLDDDDSKDIIYVLPEDKGRVIIDSKSLNILNNTTLTYTNELIGSSFKIINGSLKSSCGCGSSFDIEN
B2: Bol1-Strep [S. cerevisiae] / dihydroxyacid dehydratase (Ilv3) [S. cerevisiae (endogenous in yeast mitochondria)] (parent complex)
chain 1: B1 chain 1
chain 2: not shown
B3: Bol1-Strep [S. cerevisiae] / Sdh2 [S. cerevisiae (endogenous in yeast mitochondria)] (parent complex)
chain 1: B1 chain 1
chain 2: TATTAAATHTPRLKTFKVYRWNPDEPSAKPHLQSYQVDLNDCGPMVLDALLKIKDEQDSTLTFRRSCREGICGSCAMNIGGRNTLACICKIDQNESKQLKIYPLPHMFIVKDLVPDLTNFYQQYKSIQPYLQRSSFPKDGTEVLQSIEDRKKLDGLYECILCACCSTSCPSYWWNQEQYLGPAVLMQAYRWLIDSRDQATKTRKAMLNNSMSLYRCHTIMNCTRTCPKGLNPGLAIAEIKKSLAFA
B4: Bol1-Strep [S. cerevisiae] / Lip5 [S. cerevisiae (endogenous in yeast mitochondria)] (parent complex)
chain 1: B1 chain 1
chain 2: SSTIRCGTSATRPIRSNALNTDSDNASVRVPVGNSTEVENATSQLTGTSGKRRKGNRKRITEFKDALNLGPSFADFVSGKASKMILDPLEKARQNTEEAKKLPRWLKVPIPKGTNYHKLKGDVKELGLSTVCEEARCPNIGECWGGKDKSKATATIMLLGDTCTRGCRFCSVKTNRTPSKPDPMEPENTAEAIKRWGLGYVVLTTVDRDDLVDGGANHLAETVRKIKQKAPNTLVETLSGDFRGDLKMVDIMAQCGLDVYAHNLETVESLTPHVRDRRATYRQSLSVLERAKATVPSLITKTSIMLGLGETDEQITQTLKDLRNIQCDVVTFGQYMRPTKRHMKVVEYVKPEKFDYWKERALEMGFLYCASGPLVRSSYKAGEAFIENVLKKRNMK
B5: Bol3-Strep [S. cerevisiae] / dihydroxyacid dehydratase (Ilv3) [S. cerevisiae (endogenous in yeast mitochondria)] (parent complex)
chain 1: MKLPQTMLRSISVKHVRWPRILTGSKLWYSTQMAMTPEEKMITDKLQQELEPEVCKVQDVSGGCGSMFAINITSKKFNGLSLIKQHQLVNRILRDDISRWHGLQLTTKKSTGKGPASS
chain 2: not shown
B6: Bol1-Strep [S. cerevisiae] / Aco2 [S. cerevisiae (endogenous in yeast mitochondria)] (parent complex)
chain 1: B1 chain 1
chain 2: ATHANMFPSVSKNFQTKVPPYAKLLTNLDKIKQITNNAPLTLAEKILYSHLCDPEESITSSDLSTIRGNKYLKLNPDRVAMQDASAQMALLQFMTTGLNQTSVPASIHCDHLIVGKDGETKDLPSSIATNQEVFDFLESCAKRYGIQFWGPGSGIIHQIVLENFSAPGLMMLGTDSHTPNAGGLGAIAIGVGGADAVDALTGTPWELKAPKILGVKLTGKLNGWSTPKDVITKLAGLLTVRGGTGYIVEYFGEGVSTLSCTGMATICNMGAEIGATTSTFPYQEAHKRYLQATNRAEVAEAADVALNKFNFLRADKDAQYDKVIEIDLSAIEPHVNGPFTPDLSTPISQYAEKSLKENWPQKVSAGLIGSCTNSSYQDMSRVVDLVKQASKAGLKPRIPFFVTPGSEQIRATLERDGIIDIFQENGAKVLANACGPCIGQWNREDVSKTSKETNTIFTSFNRNFRARNDGNRNTMNFLTSPEIVTAMSYSGDAQFNPLTDSIKLPNGKDFKFQPPKGDELPKRGFEHGRDKFYPEMDPKPDSNVEIKVDPNSDRLQLLEPFKPWNGKELKTNVLLKVEGKCTTDHISAAGVWLKYKGHLENISYNTLIGAQNKETGEVNKAYDLDGTEYDIPGLMMKWKSDGRPWTVIAEHNYGEGSAREHAALSPRFLGGEILLVKSFARIHETNLKKQGVLPLTFANESDYDKISSGDVLETLNLVDMIAKDGNNGGEIDVKITKPNGESFTIKAKHTMSKDQIDFFKAGSAINYIGNIRRNE
B7: Bol1-Strep [S. cerevisiae] / Bio2 [S. cerevisiae (endogenous in yeast mitochondria)] (parent complex)
chain 1: B1 chain 1
chain 2: TKYATNAAVKSTTASSEASTLGALQYALSLDEPSHSWTKSQLKEIYHTPLLELTHAAQLQHRKWHDPTKVQLCTLMNIKSGGCSEDCKYCAQSSRNDTGLKAEKMVKVDEVIKEAEEAKRNGSTRFCLGAAWRDMKGRKSAMKRIQEMVTKVNDMGLETCVTLGMVDQDQAKQLKDAGLTAYNHNIDTSREHYSKVITTRTYDDRLQTIKNVQESGIKACTGGILGLGESEDDHIGFIYTLSNMSPHPESLPINRLVAIKGTPMAEELADPKSKKLQFDEILRTIATARIVMPKAIIRLAAGRYTMKETEQFVCFMAGCNSIFTGKKMLTTMCNGWDEDKAMLAKWGLQPMEAFKYDRS
B8: Bol1-Strep [S. cerevisiae] / Lys4 [S. cerevisiae (endogenous in yeast mitochondria)] (parent complex)
chain 1: B1 chain 1
chain 2: LKGQNLTEKIVQSYAVNLPEGKVVHSGDYVSIKPAHCMSHDNSWPVALKFMGLGATKIKNPSQIVTTLDHDIQNKSEKNLTKYKNIENFAKKHHIDHYPAGRGIGHQIMIEEGYAFPLNMTVASDSHSNTYGGLGSLGTPIVRTDAAAIWATGQTWWQIPPVAQVELKGQLPQGVSGKDIIVALCGLFNNDQVLNHAIEFTGDSLNALPIDHRLTIANMTTEWGALSGLFPVDKTLIDWYKNRLQKLGTNNHPRINPKTIRALEEKAKIPKADKDAHYAKKLIIDLATLTHYVSGPNSVKVSNTVQDLSQQDIKINKAYLVSCTNSRLSDLQSAADVVCPTGDLNKVNKVAPGVEFYVAAASSEIEADARKSGAWEKLLKAGCIPLPSGCGPCIGLGAGLLEPGEVGISATNRNFKGRMGSKDALAYLASPAVVAASAVLGKISSPAEVLSTSEIPFSGVKTEIIENPVVEEEVNAQTEAPKQSVEILEGFPREFSGELVLCDADNINTDGIYPGKYTYQDDVPKEKMAQVCMENYDAEFRTKVHPGDIVVSGFNFGTGSSREQAATALLAKGINLVVSGSFGNIFSRNSINNALLTLEIPALIKKLREKYQGAPKELTRRTGWFLKWDVADAKVVVTEGSLDGPVILEQKVGELGKNLQEIIVKGGLEGWVKSQL
B9: Bol1-Strep [S. cerevisiae] / Aco1 [S. cerevisiae (endogenous in yeast mitochondria)] (parent complex)
chain 1: B1 chain 1
chain 2: ATVSNLTRDSKVNQNLLEDHSFINYKQNVETLDIVRKRLNRPFTYAEKILYGHLDDPHGQDIQRGVSYLKLRPDRVACQDATAQMAILQFMSAGLPQVAKPVTVHCDHLIQAQVGGEKDLKRAIDLNKEVYDFLASATAKYNMGFWKPGSGIIHQIVLENYAFPGALIIGTDSHTPNAGGLGQLAIGVGGADAVDVMAGRPWELKAPKILGVKLTGKMNGWTSPKDIILKLAGITTVKGGTGKIVEYFGDGVDTFSATGMGTICNMGAEIGATTSVFPFNKSMIEYLEATGRGKIADFAKLYHKDLLSADKDAEYDEVVEIDLNTLEPYINGPFTPDLATPVSKMKEVAVANNWPLDVRVGLIGSCTNSSYEDMSRSASIVKDAAAHGLKSKTIFTVTPGSEQIRATIERDGQLETFKEFGGIVLANACGPCIGQWDRRDIKKGDKNTIVSSYNRNFTSRNDGNPQTHAFVASPELVTAFAIAGDLRFNPLTDKLKDKDGNEFMLKPPHGDGLPQRGYDAGENTYQAPPADRSTVEVKVSPTSDRLQLLKPFKPWDGKDAKDMPILIKAVGKTTTDHISMAGPWLKYRGHLENISNNYMIGAINAENKKANCVKNVYTGEYKGVPDTARDYRDQGIKWVVIGDENFGEGSSREHAALEPRFLGGFAIITKSFARIHETNLKKQGLLPLNFKNPADYDKINPDDRIDILGLAELAPGKPVTMRVHPKNGKPWDAVLTHTFNDEQIEWFKYGSALNKIKADEKK

The variants in one experiment derive from B1. Put plainly: Strep-tag affinity purification with MS proteomics (spectral counts); parent: 0; read off a plot.
On to chain 1 H93C, for which the screen value was around 0%.

The variants in another experiment derive from B2. Put plainly: Strep-tag affinity purification with MS proteomics (spectral counts); parent: 4; read off a plot.
With chain 1 H93C, the screen value was around 0%.

Variants of B3 are the subject of another experiment. Nature of the experiment: Strep-tag affinity purification with MS proteomics (spectral counts); parent: 0; read off a plot.
Regarding chain 1 H93C, the screen value was around 0%.

The variants in a further experiment derive from B4. The experiment is described as above.
For the variant chain 1 H93C, the screen value was around 0%.

In another experiment the parent is B5. Nature of the experiment: Strep-tag affinity purification with MS proteomics (spectral counts); parent: 16; read off a plot.
As for chain 1 H101C, the screen value was around 45%.

In another experiment the parent is B6. Put plainly: Strep-tag affinity purification with MS proteomics (spectral counts); parent: 0; read off a plot.
On to chain 1 H93C, for which the screen value is around 0%.

The next experiment covers variants of B7. Described as above.
As for chain 1 H93C, the screen value was around 0%.

The next experiment covers variants of B8. The experiment is described as above.
On to chain 1 H93C, for which the screen value is around 0%.

Another experiment covers variants of B9. Put plainly: Strep-tag affinity purification with MS proteomics (spectral counts); parent: 3.5; read off a plot.
Turning to chain 1 H93C, the screen value is around 1.5%.

For the origin of these results see PMC5014551 (2016).
